The values that follow are results of earlier work, collected in PMC5009806.

This data set has as its target amyloid beta (Homo sapiens) (UniProt P05067). Description: SPR.

In the case of Gantenerumab, the Kd was 0.6 nM.
